Test results taken from patent publication US20230340132A1, “ANTI-ADENOSINE RECEPTOR (A2aR) ANTIBODIES” (NA Biotech Corp, priority 2020, published 2023).
Values joined by “and” are separate entries in the source; they are usually repeats but may differ in a detail not shown here. Equal values may be shown once. “Also recorded” adds a separate entry of the source.

T1: human adenosine receptor A1 (Homo sapiens, UniProt P30542)
T1 construct: FLAG
T1 sequence (P30542 1-326): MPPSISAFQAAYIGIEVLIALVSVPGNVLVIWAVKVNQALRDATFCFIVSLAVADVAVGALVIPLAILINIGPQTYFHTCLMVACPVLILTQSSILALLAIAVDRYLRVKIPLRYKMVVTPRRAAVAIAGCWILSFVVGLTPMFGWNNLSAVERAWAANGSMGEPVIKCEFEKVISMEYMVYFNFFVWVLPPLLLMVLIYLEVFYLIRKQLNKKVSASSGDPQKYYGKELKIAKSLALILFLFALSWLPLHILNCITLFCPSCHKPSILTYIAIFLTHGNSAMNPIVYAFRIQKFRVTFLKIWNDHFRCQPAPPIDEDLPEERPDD

T2: human adenosine receptor A3 (Homo sapiens, UniProt P0DMS8)
T2 construct: FLAG
T2 sequence (P0DMS8 1-318): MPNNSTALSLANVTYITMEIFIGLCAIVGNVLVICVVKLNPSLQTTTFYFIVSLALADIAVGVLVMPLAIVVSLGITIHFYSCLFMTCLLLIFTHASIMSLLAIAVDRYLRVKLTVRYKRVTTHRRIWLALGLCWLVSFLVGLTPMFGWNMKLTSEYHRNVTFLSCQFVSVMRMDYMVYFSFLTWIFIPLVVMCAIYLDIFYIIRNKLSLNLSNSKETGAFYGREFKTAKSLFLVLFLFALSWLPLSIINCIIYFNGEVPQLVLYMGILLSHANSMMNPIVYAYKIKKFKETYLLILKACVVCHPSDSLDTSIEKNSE


What was measured:
[1] = biological target: T1, human adenosine receptor A1; experiment: flow cytometry-based cell-binding assay, HEK293T-A1; details: for Geo Mean: HEK293T-A1, duplicate; for binding to HEK293T-A1 relative to binding to human A2aR (in words): summary of Table 12
Method: (§1) To test the specificity of the antigen binding molecules of the invention, e.g., anti-A2aR antibodies or antigen binding fragments thereof to human A2aR and not towards any of the other 3 adenosine receptor family members, a flow cytometry-based cell-binding assay was performed by Multispan Inc (Hayward, CA). HEK293T cells stably expressing various adenosine receptors, i.e., human A1R, A2bR, and A3R, and mouse A2R, generated by Multispan Inc and HEK293T parental cell lines were used in the assay. Briefly, adenosine receptor-overexpressing cell lines and HEK293T parental cell lines were incubated with 2, 10, and 50 nM of anti-human A2aR monoclonal antibodies (clones 1B5-3D7 and 3F6-9G5) and 10 and 50 nM of mouse IgG2a Isotype control at 4° C. in the dark for 60 minutes. Anti-FLAG antibody (Abcam, ab72469, 2 μg/mL) was used as positive control for cell lines over-expressing various adenosine receptors, respectively. After 3 washes with FACS buffer (PBS plus 0.1% BSA and 0.2% sodium azide), cells were stained with an anti-mouse-IgG-PE (Invitrogen, cat. P852) detection antibody for 45 minutes at 4° C. The cells were then washed 3 times with FACS buffer and analyzed on FACSort (Becton Dickinson). Data was analyzed using CellQuest Pro (Becton Dickinson).

[2] = biological target: T3, human adenosine receptor A2A (Homo sapiens, UniProt P29274); experiment: flow cytometry-based cell-binding assay, HEK293T-A2A; details: for Geo Mean: HEK293T-A2A, duplicate; for binding to human A2aR (in words): summary of Table 12
T3 construct: FLAG
T3 sequence (P29274 whole entry): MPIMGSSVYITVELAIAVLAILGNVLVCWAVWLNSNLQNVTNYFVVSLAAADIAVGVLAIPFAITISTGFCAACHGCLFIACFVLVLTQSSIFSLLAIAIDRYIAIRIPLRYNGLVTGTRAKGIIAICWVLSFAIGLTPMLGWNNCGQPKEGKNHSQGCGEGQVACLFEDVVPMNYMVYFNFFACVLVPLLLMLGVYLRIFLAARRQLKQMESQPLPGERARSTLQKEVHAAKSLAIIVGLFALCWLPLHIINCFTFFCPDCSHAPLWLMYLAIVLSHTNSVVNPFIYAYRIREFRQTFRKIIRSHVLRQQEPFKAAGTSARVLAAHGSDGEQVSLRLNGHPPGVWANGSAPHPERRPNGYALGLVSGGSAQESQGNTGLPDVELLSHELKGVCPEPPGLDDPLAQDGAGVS
Method: as §1

[3] = biological target: T2, human adenosine receptor A3; experiment: flow cytometry-based cell-binding assay, HEK293T-A3; details: duplicate
Method: as §1

[4] = biological target: T4, mouse adenosine receptor A2A (Mus musculus, UniProt Q60613); experiment: flow cytometry-based cell-binding assay, HEK293T-mA2A; details: duplicate
T4 construct: FLAG
T4 sequence (Q60613 whole entry): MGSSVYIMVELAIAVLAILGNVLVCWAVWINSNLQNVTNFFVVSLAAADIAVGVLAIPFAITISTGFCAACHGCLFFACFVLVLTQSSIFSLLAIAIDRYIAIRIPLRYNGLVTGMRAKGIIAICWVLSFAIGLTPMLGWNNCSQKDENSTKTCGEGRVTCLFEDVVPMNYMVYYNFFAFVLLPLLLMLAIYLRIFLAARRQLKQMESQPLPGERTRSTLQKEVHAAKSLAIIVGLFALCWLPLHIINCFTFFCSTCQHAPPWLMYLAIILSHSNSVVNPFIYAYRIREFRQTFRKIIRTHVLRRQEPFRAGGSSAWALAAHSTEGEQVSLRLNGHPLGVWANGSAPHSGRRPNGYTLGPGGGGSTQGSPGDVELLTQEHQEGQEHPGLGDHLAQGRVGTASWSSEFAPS
Method: as §1

[5] = tested on: HEK293T cell without exogenous adenosine receptor; experiment: flow cytometry-based cell-binding assay, parental HEK293T; set-up: species or system human; details: duplicate
Method: as §1

[6] = biological target: T5, human A2aR (Homo sapiens, UniProt P29274); experiment: FACS screening of hybridoma clones on human A2aR-expressing Expi293 cells; type: binding; details: antibodies from hybridoma clones
T5 construct: expressed in transfected cells; host or cells: Expi293
T5 sequence (P29274 whole entry): as the sequence (P29274 whole entry) above
Method: (§2) Serum titration was performed using Fluorescence-Activated Cell Sorting (FACS) pursuant to standard procedures. Human A2aR-expressing Expi293 cells were first added to 96-well plate (1×10^5 cells per well), 50 μl of serial diluted serum (1:50, 1;150, 1:450, 1:[…], 1:12150) from each individual mouse was incubated with cells for 30 min. on ice. After washing with FACS buffer (2% Fetal bovine serum, 2 mM EDTA in PBS), Alex Fluor 647-conjugated anti mouse IgG was added and incubated for 20 min on ice. Cells were resuspending with 100 μl FACS buffer after two times wash and ready for FACS analysis (BD LSR II Flow Cytometer, HTS). […] (MFI: mean fluorescence intensity).
(§3) Primary screening of the hybridoma supernatants in the 96-well plates was performed using the same FACS procedure as described for serum titration except following changes: 1) Human A2aR-expressing Expi293 cells (expressing GFP) were mixed at 1:1 ratio with parental Expi293 (no A2aR expression) and added to 96-well plates (2×10^5 cells per well), 2) 50 μl hybridoma supernatant transferred from each well of 96-well plates was incubated with cells for 30 min. on ice.
(§4) Sub-cloning was performed by limiting dilution method. In short, the positive wells identified by FACS were seeded into 96-well plate at an average density of 1 cell/well. The […] was placed in incubator for 7-10 days to allow the growth of the cells. The growth of cells was monitored periodically. At about day 4, the wells on the plate were observed under phase contrast microscopy and the wells which appeared to have single colony growing (i.e., only one clumping of hybridomas) were recorded. The cells from the single colony wells were screed by FACS using the same procedure as described for primary screening of hybridoma when the confluence of the cell reached about 50%.

[7] = tested on: parental Expi293 cells; experiment: FACS screening of hybridoma clones on parental Expi293 cells; type: binding; details: antibodies from hybridoma clones
Method: as §2, §3, §4

[8] = biological target: T5, human A2aR; experiment: FACS binding titration on hA2aR-Expi293 cells; details: 12-point 1:2 serial dilution starting from 7.5 ug/ml
Method: (§5) Human A2aR-expressing Expi293 cells or parental Expi293 cells were first added to 96-well plate (1×10^5 cells per well). Fifty microliters (50 μl) of 12-point 1:2 serial diluted samples starting from 7.5 ug/ml for each antibody was incubated with cells for 30 minutes on ice. After being washed with FACS buffer (2% Fetal bovine serum in DPBS), […] of Alex Fluor 633-conjugated anti mouse IgG (Life technology, Cat.A21050) or Alex Fluor 647-conjugated anti-human IgG was added and incubated for 30 minutes on ice. Cells were resuspended with 100 μl of FACS buffer after two washes. One hundred microliters 100 μl of 1:50 diluted 7-AAD for live/dead staining was added to the cell suspension, which was ready for FACS analysis (BD Accuri C6 plus or LSR II Flow Cytometer, HTS).

[9] = tested on: parental Expi293 cells; experiment: FACS binding titration on parental Expi293 cells; details: 12-point 1:2 serial dilution starting from 7.5 ug/ml
Method: as §5

Molecule | Geo Mean ([1]; 2 nM) | Geo Mean ([1]; 10 nM) | Geo Mean ([1]; 50 nM) | binding to HEK293T-A1 relative to binding to human A2aR (in words) [1] | Geo Mean ([2]; 2 nM) | Geo Mean ([2]; 10 nM) | Geo Mean ([2]; 50 nM) | binding to human A2aR (in words) [2] | Geo Mean ([3]; 2 nM) | Geo Mean ([3]; 10 nM) | Geo Mean ([3]; 50 nM) | Geo Mean ([4]; 2 nM) | Geo Mean ([4]; 10 nM) | Geo Mean ([4]; 50 nM) | Geo Mean ([5]; 2 nM) | Geo Mean ([5]; 10 nM) | Geo Mean ([5]; 50 nM) | binding to human A2aR-expressing cells (FIG. 2) [6] | binding to parental Expi293 cells (FIG. 2) [7] | binding to hA2aR-Expi293 (FIG. 5) [8] | further results
anti-human A2aR monoclonal antibody 1B5-3D7 (antibody, V domains shown, Tested as whole mouse IgG2a / kappa, purified from hybridoma supernatant or made recombinantly in Expi293 cells; also called 1B-3D7) VH: QVQLQQPGTELVKPGAPVKLSCKTSGFTFTRFWMNWVRQRPGRGLEWIGRIDPYDSETQYNHKFWDRATLTVDKSSSTVYIQLSSLTSEDSAVYYCGRSLYGKGDYWGQGTTLTVSS VL: DVLMTQSPLSLPVSLGDQASISCRSSQSIVHSNGNTYLEWYLQRPGQSPKLLIYKVSNRFSGVPDRFSGSGSGTYFTLRISRVEAEDLGIYYCFQGSHVPLTFGSGTTLELK | 10.15 and 11.83 | 18.4 and 24.97 | 27.59 and 30.66 | significantly weaker | 97.49 and 95.04 | 261.79 and 221.91 | 260.67 and 377.56 | specifically bound to human A2aR | 2.11 and 2.09 | 2.23 and 2.32 | 2.45 and 2.3 | 2.96 and 3.82 | 4.13 and 6.16 | 3.48 and 6.03 | 3.69 and 4.11 | 5.42 and 4.07 | 5.24 and 4.96 | specific binding | not to parental Expi293 cells | strong dose-dependent specific binding; also recorded: specifically binds | binding to parental Expi293 (FIG. 5) [9]: not to parental Expi293
3F6-9G5: anti-human A2aR monoclonal antibody from mouse hybridoma clone; HCVR SEQ ID NO: 36, LCVR SEQ ID NO: 42 (antibody, V domains shown) VH: QVQLQQPGTELVKPGAPVRLSCKASGFAFTSYWMNWVRQRPGRGLEWIGRIDPSDSEAHYHHKFWGKATLTVDKSSSTVYIQLNGLTSEDSAVYYCLRSLYGKGDYWGHGTTLTVSS VL: DVLMTQTPLSLSVRLGDQASISCRSSQSLVHRNGNTYLEWYLQRPGQSPKLLIYKVSNRFSGVPDRFSGSGSGTDFTLKISRVEAEDLGVYYCYQGSHVPLTFGSGTKLEIK | 8.35 and 8.81 | 15.26 and 15.56 | 22.97 and 22.51 | significantly weaker | 112.47 and 109.2 | 273.51 and 290.29 | 270 and 289.37 | specifically bound to human A2aR | 2.07 and 1.96 | 2.49 and 2.33 | 2.66 and 2.25 | 2.9 and 3.08 | 3.7 and 3.25 | 4.98 and 4.76 | 3.98 and 4.33 | 4.01 and 4.27 | 4.19 and 6.16 | specific binding | not to parental Expi293 cells | strong dose-dependent specific binding; also recorded: specifically binds | binding to parental Expi293 (FIG. 5) [9]: not to parental Expi293
